{"source": "paper PMC10950897", "about": "(Nature Communications, 2024)", "binders": {"B1": {"name": "VBM (ATXN3, aa275-295) peptide (peptide)", "peptide": "Biotin-NLTSEELRKRREAYFEKQQQK", "notes": "ATXN3 (ataxin-3), human, VBM motif, aa275-295; also called peptide spanning the VBM in ATXN3; source: synthetic peptide, bought: GenScript"}, "B2": {"name": "VIM (SVIP, aa14-39) peptide (peptide)", "peptide": "Biotin-PTPDLEEKRAKLAEAAERRQKEAAS", "notes": "SVIP, human, VIM motif; also called peptide spanning the VIM in SVIP; source: synthetic peptide, bought: GenScript"}, "B3": {"name": "Strep-HA-VCF1 WT (natural protein)", "chain": "not shown", "notes": "VCF1 (FAM104A), human, isoform 1, 186 amino acids; cDNA inserted into pcDNA5/FRT/TO/Strep-HA; also called recombinant VCF1; full-length VCF1; source: HEK293-EBNA1-6E, transfected, purified (Strep-Tactin, Superose 6)"}}, "key": {"[1]": {"biological_target": "T1, His6-p97 WT (human, UniProt P55072 1-806)", "T1 construct": "p97/VCP, human; from plasmid pET15b-His6-p97; hexamer by mass photometry (535 kDa); also called recombinant p97; purified p97; source: E. coli BL21(DE3), purified (Ni-NTA, Superose 6)", "T1 sequence (P55072 whole entry)": "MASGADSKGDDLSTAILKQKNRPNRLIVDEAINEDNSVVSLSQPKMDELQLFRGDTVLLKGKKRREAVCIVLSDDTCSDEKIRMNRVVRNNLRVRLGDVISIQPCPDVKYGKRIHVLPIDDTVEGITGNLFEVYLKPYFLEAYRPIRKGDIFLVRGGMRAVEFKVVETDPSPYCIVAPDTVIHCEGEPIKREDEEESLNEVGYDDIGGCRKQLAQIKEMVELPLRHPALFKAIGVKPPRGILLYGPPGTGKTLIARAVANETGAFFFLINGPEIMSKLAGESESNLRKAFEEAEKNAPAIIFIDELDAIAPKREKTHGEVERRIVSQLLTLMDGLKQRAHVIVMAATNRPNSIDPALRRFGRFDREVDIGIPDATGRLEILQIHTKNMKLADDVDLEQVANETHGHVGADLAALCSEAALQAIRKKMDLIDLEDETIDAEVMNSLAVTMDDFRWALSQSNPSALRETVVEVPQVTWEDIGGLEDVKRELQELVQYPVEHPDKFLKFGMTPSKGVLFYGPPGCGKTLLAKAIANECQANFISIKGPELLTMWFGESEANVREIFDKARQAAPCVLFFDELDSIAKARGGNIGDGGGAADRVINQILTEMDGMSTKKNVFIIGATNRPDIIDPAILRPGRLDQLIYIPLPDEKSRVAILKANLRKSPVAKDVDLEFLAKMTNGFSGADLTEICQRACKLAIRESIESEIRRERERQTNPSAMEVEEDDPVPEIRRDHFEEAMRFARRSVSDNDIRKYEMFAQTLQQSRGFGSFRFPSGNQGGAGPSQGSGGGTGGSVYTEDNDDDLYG", "assay": "pull-down; biotinylated VRM, VIM or VBM peptides immobilized on StrepTactin agarose, incubated with purified WT or mutant His6-p97, washed extensively in RIPA buffer, immunoblot", "details": "both partners purified"}, "[2]": {"biological_target": "T1, His6-p97 WT", "assay": "SPR; Biacore T200, 25 C, His6-p97 amine-coupled to CM5 chip (~400 RU), Strep-HA-VCF1 full-length as analyte up to 100 nM, PBS-P with 0.5 mM TCEP, 1:1 model", "details": "both partners purified"}}, "note": "Where no end group is shown, it is not given here. The star is where a group is joined. Biotin = O=C1N[C@H]2[C@H](CS[C@H]2CCCCC(=O)*)N1", "data": [{"binder": "B1", "values": [{"measurement": "binding result", "setting": "[1]", "result": "binds"}]}, {"binder": "B2", "values": [{"measurement": "binding result", "setting": "[1]", "result": "binds"}]}, {"binder": "B3", "values": [{"measurement": "Kd", "setting": "[2]", "result": "~0.01", "unit": "µM"}]}]}
